Data set [1] deals with the molecule itself. The experiment in a line: crystal structure; mouse β4ex, cubic crystal form, 3.1 Å; 2.7 M sodium malonate, 0.1 M Tris-HCl (pH 7.0), 0.5% Tween 20, 20 °C; two molecules in the asymmetric unit related by non-crystallographic 2-fold symmetry.
Data set [2] deals with the molecule itself. The experiment in a line: SEC; HiLoad 16/60 Superdex 75, non-reducing conditions; second peak (65–75 ml) of the anion exchange chromatography; 20 mM Tris-HCl (pH 8.0), 150 mM NaCl, 10% glycerol. For orientation: SEC sorts molecules by how far they enter the pores of the column.

B1: mouse β4 subunit extracellular domain fragment (residues 30–160) with a C-terminal His6 tag (domain or fragment, UniProt Q7M729 30-160, looked up)
chain: SLEVSVGKATTIYAINGSSILLPCTFSSCYGFENLYFKWSYNNSETSRILIDGIVKNDKSDPKVRVKDDDRITLEGSTKEKTNNISILLSDLEFSDTGRYTCFVRNPKEKDLNNSATIFLQVVDKLEKVDN
notes: voltage-gated sodium channel β4 subunit, mouse, GenBank BK001031.1, residues 30–160 (numbering starts from the initiator methionine residue); all three Cys residues kept; Cloned into pGEX6P2; GST cleaved with PreScission protease; also called mouse β4ex; mouse β4 (cubic form); source: E. coli BL21DE3, purified (nickel-Sepharose, glutathione-Sepharose, Mono Q); not shown: His6, C-terminal, kept
Consider B1, for which the binding result in data set [1] was “binds”.

B2: human β4 subunit extracellular domain fragment (residues 30–152) (domain or fragment, UniProt Q8IWT1-1 30-152, looked up)
chain: SLEVSVGKATDIYAVNGTEILLPCTFSSCFGFEDLHFRWTYNSSDAFKILIEGTVKNEKSDPKVTLKDDDRITLVGSTKEKMNNISIVLRDLEFSDTGKYTCHVKNPKENNLQHHATIFLQVV
notes: voltage-gated sodium channel β4 subunit, human, GenBank NP_777594, residues 30–152; all three Cys residues kept; His tag cleaved by tobacco etch virus protease; also called human β4ex; human β4 (hexagonal form); source: E. coli cell-free protein synthesis, purified (HisTrap, HiTrap Q, Superdex 75); not shown: His tag, N-terminal, cleaved
As a reminder, the stoichiometry N is a count of units in the complex or per binding partner. For the protein B2, the “stoichiometry N” value in data set [2] amounted to 2.

The record behind these values is publication PMC5555201, “Parallel homodimer structures of the extracellular domains of the voltage-gated sodium channel β4 subunit explain its role in cell–cell adhesion” (The Journal of Biological Chemistry, 2017).
